{"source": "patent US20090233317", "key": {"[1]": {"system": "hsGRIM1 (human Global Repressor Involved in Myogenic differentiation), full length aa 1-749"}, "[2]": {"system": "recombinantly expressed GRIM1 aa 3-147"}}}
{"substance": "HAT domain of p300 (bacterially expressed)", "values": [{"measurement": "acetylation of GRIM1", "setting": "[1]", "value": "detection of direct acetylation of GRIM1 (aa3-147 and of full-length GRIM1) by the HAT domain of p300"}, {"measurement": "acetylation of GRIM1", "setting": "[2]", "value": "detection of direct acetylation of GRIM1 (aa3-147 and of full-length GRIM1) by the HAT domain of p300"}]}
